Numbering of substitutions follows the chain as printed. Each block holds one binder with its values, some of them ahead of it.
Experiments:
[1] = target: T1, HIS-tagged extracellular domain of canine IL-4 receptor alpha chain (canine); assay: ELISA on plate-coated HIS-tagged canine IL-4Rα ECD, detection with HRP goat anti-mouse IgG
T1 construct: also called canine IL-4 receptor alpha chain ECD HIS-tagged protein; extracellular domain of canine IL-4Rα
T1 chain: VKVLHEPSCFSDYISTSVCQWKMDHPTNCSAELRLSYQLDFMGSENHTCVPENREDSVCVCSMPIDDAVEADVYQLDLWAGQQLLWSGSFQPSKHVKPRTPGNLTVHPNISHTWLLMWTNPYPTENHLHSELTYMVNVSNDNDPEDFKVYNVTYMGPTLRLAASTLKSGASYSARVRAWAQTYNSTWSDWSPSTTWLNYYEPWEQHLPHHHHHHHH
Protocol: This procedure was repeated as necessary to obtain adequate amounts of mAb from each hybridoma clone. Harvested cell suspensions were centrifuged and the supernatants were filtered through 0.2 micron filter membranes. For antibody purification, each clone's supernatant was purified using a Protein G Sepharose 4 Fast flow 5 mL column (GE Healthcare) by gravity flow. After washing with Tris-EDTA (TE) buffer pH 8.0, bound antibodies were eluted using 0.1 M glycine buffer, pH 2.7, followed by pH neutralization using 1 M Tris, pH 8.0. Antibodies were concentrated and buffer exchanged into phosphate-buffered saline (PBS) using Centriprep YM-10 kDa NMWL centrifugal filter units (Millipore). Antibody concentrations were quantified using spectrophotometry. Purified anti-canine IL-4 receptor α chain mAbs were tested for reactivity with the HIS-tagged ECD domain of canine IL-4 receptor alpha chain by ELISA as follows: HIS-tagged canine IL-4 receptor alpha chain protein is diluted to 10 μg/mL in coating buffer (Carbonate/Bicarbonate pH 9.0) and dispensed at 100 μl/well in 96-well flat bottomed ELISA plates (NUNC). The plates are incubated at 4° C. overnight. The plates are then washed three times with phosphate buffered saline containing 0.05% Tween-20 (PBST). Next, 200 μl of blocking buffer (5% skim milk in PBST) is added to each well and the plates are incubated at 37° C. for 60 minutes. The plates are then washed three times with PBST. Next, 100 μl of test mAbs diluted in blocking buffer is added to the first wells of the appropriate columns. Test mAbs are then diluted three-fold to the appropriate plate position. Following incubation of the plates at 37° C. for 60 minutes, the plates are washed three times with PBST. Next, 100 μl per well of a 1:2,000 dilution of a horseradish peroxidase conjugated goat anti-mouse IgG (KPL) is added to the plates, which are then incubated at 37° C. for 60 minutes. Then the plates are washed three times with PBST, and 100 μl/well of 3,3′,5,5′ tetramethyl benzidine, (TMB) substrate (from KPL) is added to the plates. The color reaction is allowed to develop for 5-20 minutes at 37° C. prior to measuring absorbance at 650 nm.
Various mouse anti-canine IL-4Rα monoclonal antibodies (mAbs) were assayed by ELISA for their ability to bind the extracellular domain of canine IL-4Rα.

[2] = target: T2, canine IL-4 receptor alpha chain (full length) expressed on the surface of CHO DG44 cells (canine); assay: flow cytometry ligand blockade on CHO-cIL-4Rα cells; competitor biotinylated canine IL-4 at 0.32 µg/mL
T2 construct: also called cIL-4Rα; CHO-cIL-4Rα
T2 chain: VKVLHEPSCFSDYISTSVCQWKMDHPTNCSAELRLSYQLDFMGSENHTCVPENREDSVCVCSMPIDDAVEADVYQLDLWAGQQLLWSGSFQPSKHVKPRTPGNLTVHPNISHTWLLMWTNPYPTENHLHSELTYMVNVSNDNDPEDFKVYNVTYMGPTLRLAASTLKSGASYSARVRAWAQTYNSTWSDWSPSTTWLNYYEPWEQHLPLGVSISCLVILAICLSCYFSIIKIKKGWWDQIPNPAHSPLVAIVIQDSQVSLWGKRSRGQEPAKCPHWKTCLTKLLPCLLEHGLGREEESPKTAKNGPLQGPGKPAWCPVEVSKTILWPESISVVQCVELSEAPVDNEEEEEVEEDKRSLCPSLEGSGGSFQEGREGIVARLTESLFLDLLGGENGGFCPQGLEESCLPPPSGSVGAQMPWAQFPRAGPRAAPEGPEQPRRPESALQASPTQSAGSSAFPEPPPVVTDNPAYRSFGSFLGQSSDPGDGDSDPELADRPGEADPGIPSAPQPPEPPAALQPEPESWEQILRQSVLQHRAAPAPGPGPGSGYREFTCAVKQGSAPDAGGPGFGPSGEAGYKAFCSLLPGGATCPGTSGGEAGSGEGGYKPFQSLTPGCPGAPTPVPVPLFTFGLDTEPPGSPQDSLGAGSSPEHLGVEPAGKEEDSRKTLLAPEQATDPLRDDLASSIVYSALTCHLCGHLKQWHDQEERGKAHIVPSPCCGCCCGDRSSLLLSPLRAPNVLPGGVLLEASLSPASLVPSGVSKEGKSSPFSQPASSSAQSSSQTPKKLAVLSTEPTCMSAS
Protocol: Procedure: [0247] 1. CHO-DH44-canIL-4Rα cell grown to 2-4 ×10⁶ cells/mL with more than 96% viability. [0248] 2. The cells were spun down, the supernatant discarded, and the cells were suspended in FACS buffer to 2×10⁷ cells/mL. [0249] 3. The cells were distributed into a U-shape 96-well plate, 50 μl each well. [0250] 4. The anti-canine IL-4Rα mAbs in FACS buffer was diluted three-fold on a 96-well plate from top down to bottom well, starting at 50 μg/mL. [0251] 5. 50 μl of each diluted Ab was transferred into the cell plate and then incubated on ice for 30 min. [0252] 6. The cells were washed twice with FACS buffer. [0253] 7. The cells were resuspended into 100 μl of biotinylated canine IL-4 at 0.32 μg/mL in FACS buffer and incubated on ice for 30 min. [0254] 8. The cells were washed twice with FACS buffer. [0255] 9. The cells were responded into 100 μl of R-phycoerythin conjugated Streptavidin (1:1000 dilution) in FACS buffer and incubated on ice for 30 min. [0256] 10. The cells were washed twice with FACS buffer. [0257] 11. The cells were brought up to 300 μl in FACS buffer. [0258] 12. 10,000 cells were read for each sample by BD Accuri-C6. [0259] 13. The resulting readout were analyzed by FlowJo to get the mean fluorescent intensity (MFI).

[3] = target: T2, canine IL-4 receptor alpha chain (full …); assay: flow cytometry, binding to CHO-cIL-4Rα cells

- EC50 (read off the curve) [1]: ~0.1 nM
B1: 1A3 (antibody, V domains shown)
VH: EVQLVESGGDLVKPGGSLKLSCAASGFTFSDFGMHWVRQAPEKGLGWVAYISSGSGTIYYADTVRGRFTISRDNVKNTLFLQMTSLRSEDTAMYYCVRGDLYYGSSFDAYWGRGTLVTVSA
VL: QIVLSQSPAILSASPGEKVTMTCRASSSVSFMFWYQQKPGSSPKPWIYDTSNLASGVPARFSGSGSGTSYSLTISRVEAEDAATYYCQQWSSNPLTFGAGTKLELK
notes: member of the group m16; also called mAb 1A3; mouse anti-canine IL-4Rα monoclonal antibody 1A3

- EC50 (read off the curve) [1]: ~0.1 nM
B2: 11D3 (antibody, V domains shown)
VH: QIQLVQSGPELKKPGETVKISCKASGYIFTTYGMYWVKQAPGKGLKWMGWINTYSGVPTYVDDFKGRFAFSLETSASTAYLQINNLKNEDTATYFCVVAGWFAYWGQGTLVTVSA
VL: DIKMTQSPSSMYASLGERVTITCKASQDIKSYLSWFQQKPGKSPKTLIYRANILIDGVPSRFSGSGSGQDYSLTISSLEYEDMGIYYCLQYDEFPYTFGGGTKLEIK
notes: member of the group m16; also called mAb 11D3; mouse anti-canine IL-4Rα monoclonal antibody 11D3

- EC50 (read off the curve) [1]: ~0.3 nM
- IC50 [2]: 53.2 nM
- EC50 [3]: 7.5 nM
B3: mouse anti-canine IL-4Rα monoclonal antibody 11B6 (antibody, V domains shown)
VH: EVQLQESGPGLAKPSQTLSLTCSVTGYSITSDYWNWIRKFPGNKLEYMGYINYSGNTYYNPSLKSRISITRDTSKNQYYLQLNSVTTEDTATYYCARYGGLRQGSWHFDVWGPGTTVTVSS
VL: QIVLTQSPAIMSASPGEKVTISCSASSSVSYMYWYQQKPGSSPKPWIYRTSNLASGVPARFSGSGSGTSYSLTISSMEAEDAATYYCQQYHSYPATFGGGTKLEIK
notes: Hybridoma-derived mouse antibody; also called mAb 11B6

- IC50 [2]: 19.3 nM
- EC50 [3]: 8.6 nM
B4: mouse anti-canine IL-4Rα monoclonal antibody 6C12 (antibody, V domains shown)
VH: QIQLIQSGPELKKPGETVKISCKASGYTFTTFGMSWVKQAPGKGLKWMGWISTYSGVPTYADDFKGRFAFSLETSASTAYLQINNLKNEDTASYFCARHTFQSRGLAYWGQGTLVTVSA
VL: DIVMTQSHKFMSTSVGDRVSITCKASQDVITTVAWYQQKPGQSPKLLIYSASYRYTGVPDRFTGSGSGTDFTFTITSVQTEDLAVYYCQQHYSTPWTFGGGTKLEIK
notes: Hybridoma-derived mouse antibody; also called mAb 6C12

- EC50 (read off the curve) [1]: ~0.3 nM
B5: 10F2 (antibody, V domains shown)
VH: QVHLKESGPGLVAPSQSLSITCTVSGFSLTSYGVSWVRQPPGEGLEWLGVIWGDGSTYFHSALISRLSISKDDSKSQVFLKLNSLQTDDTATYYCAKQGTIYDGYYNYAMDYWGQGTSVTVSS
VL: DIVMSQSPSSLTVSVGEKVTMSCKSSQNLLYGGNQKNYLAWYQQKPGQSPKLLIYWASTRESGVPDRFTGSGSGTDFTLTISSVRAEDLAVYYCQQYYDYPYTFGGGTKLEIK
notes: member of the group m16; also called mAb 10F2; mouse anti-canine IL-4Rα monoclonal antibody 10F2

- binding result [1]: binds
B6: 10E10 (antibody, V domains shown)
VH: QVQLQQSGPELVKPGASVKLSCKASGYTFTTYDIHWVKQRPGQGLEWIGWIYPRDGRTTYNEKFKAKATLTVDTSSTTAYMELHSLTSEDSAVYFCARSSPFGYWGQGTTLTVSS
VL: DIQMTQSSSYLSVSLGGRVTITCKASDHINNWLAWYQQKPGNAPRLLISGATSLETGVPSRFSGSGSGKDYTLSITSLQTEDAATYHCHQYWSIPYTFGGGTKVEIK
notes: member of the group m16; also called mAb 10E10; mouse anti-canine IL-4Rα monoclonal antibody 10E10

- IC50 [2]: 2.1 nM
- EC50 [3]: 1.2 nM
B7: mouse anti-canine IL-4Rα monoclonal antibody 2E2 (antibody, V domains shown)
VH: EVKLVESGGGLVQPGGSLKLSCVASGFTFSDYHMHWVRQTPEKRLEWVAYISKGGGSTYYPDTEKGRFTISRDNAKNTLYLQMSRLKSEDTAMYYCARSPGPSSFYWYFDVWGTGTTVTVSS
VL: DIQMTQSPASLSASVGETVTITCRASENIYSYLAWYQQKQGKSPQLLVYNAKTLAEGVPSRFSGSGSGTQFSLKINSLQPEDFGSYYCQHHYGIPVTVGVGTKLELK
notes: Hybridoma-derived mouse antibody; also called mAb 2E2

- IC50 [2]: 4.2 nM
- EC50 [3]: 1.1 nM
B8: mouse anti-canine IL-4Rα monoclonal antibody 4D8 (antibody, V domains shown)
VH: EVTLVESGGGLVQPGGSLKLSCAASGFTFSDYYMYWVRQTPEKRLEWVAYISPGGGSTYYPDTIKGRFTISRDNAKNTLYLQMSRLKSEDTAMYYCTRHGSPYGSSRGAWFAYWGQGTLVTVSA
VL: B7 VL with A51G, S60A, Y92D, V98F, V100A
notes: Hybridoma-derived mouse antibody; also called mAb 4D8

- binding result [1]: binds
B9: 1B12 (antibody, V domains shown)
VH: EVQLQQSGPELVKPGASVKISCKASGYTFTDYYMNWVKQSHGKSLEWIGDIIPSNGGTSYNQKFKGKATLTVDKSSSAAYMELRSLTSEDSAVYYCARGISYYGNRYYFTMDYWGQGTSVTVSS
VL: DIVMTQAAPSVPVTPGESVSISCRSSKSLLHSNGNTYLFWFVQRPGQSPQLLIYRMSNLASGVPDRFSGSGSGTAFTLRISRVEAEDVGVYYCMQHLEYPFTFGSGTKLDIK
notes: member of the group m16; also called mAb 1B12; mouse anti-canine IL-4Rα monoclonal antibody 1B12

- EC50 (read off the curve) [1]: ~0.2 nM
B10: 1A9 (antibody, V domains shown)
VH: QVPLQQSGPELVKPGASVKISCKASGYAFSSSWMNWVKQRPGKGLEWIGRIYPGDGDTKYNGKFKGKATLTADKSSSTAYMQLSSLTSEDSAVYFCARDDYDEASWGQGTLVTVSA
VL: DIVMTQSQKFMSTSVGDRVSITCKASQNVRSAVAWYQQKPGQSPKSLIYLASNRHTGVPDRFTGSGSGTDFTLTISNVQSEDLADYFCLQHWNYPFTFGSGTKLEIK
notes: member of the group m16; also called mAb 1A9; mouse anti-canine IL-4Rα monoclonal antibody 1A9

- IC50 [2]: 3.9 nM
- EC50 [3]: 1.6 nM
B11: mouse anti-canine IL-4Rα monoclonal antibody 4H3 (antibody, V domains shown)
VH: QVQLQQPGAELVKPGASVKLSCKASGYTFTNYWIHWMKQRPGRGLEWIGRIDPNSGGTKYNEKFKSKATLTVDKPSITAYMQLSSLTSEDSAVYYCAAFGSTYGFAYWGQGTLVTVSA
VL: DIVMSQSPSSLAVSAGEKVTMSCKSSQSLLNSRTRKNYLAWYQQKPGQSPKLLIYWASTRESGVPDRFTGSGSGTDFTLTISSVQAEDLAVYYCKQSYNLYTFGGGTKLEIK
notes: Hybridoma-derived mouse antibody; also called mAb 4H3

Source: US20180346580A1 (INTERVET, published 2018)
